Drawing on patent publication US20110294740A1 (RESEARCH FOUNDATION FOR THE STATE UNIVERSITY OF NEW YORK, published 2011), this text covers binding result and Kd for 3 molecules.

B1: myelin basic protein (purified MBP) (other, human, UniProt P02686-5 2-171, looked up)
chain: ASQKRPSQRHGSKYLATASTMDHARHGFLPRHRDTGILDSIGRFFGGDRGAPKRGSGKDSHHPARTAHYGSLPQKSHGRTQDENPVVHFFKNIVTPRTPPPSQGKGRGLSLSRFSWGAEGQRPGFGYGGRASDYKSAHKGFKGVDAQGTLSKIFKLGGRDSRSGSPMARR
notes: also called intact MBP

Assay [1] addresses B1. The assay is described as follows: dot blot: peptide immobilised on nitrocellulose, incubated with MBP, detected with mAb 384. The method, then: Dot Blot Analysis. […] Insulin (Sigma) was resuspended to 2 mg/ml in water at pH 2.0 and diluted to 2 μg/ml in Tris-buffered saline. 1 μg of each was immobilized onto Hybond ECL nitrocellulose membranes using a Bio-Dot microfiltration apparatus (Bio-Rad) according to the manufacturer's instructions. Each membrane was removed from the apparatus following immobilization and blocked overnight in 5% BSA and PBS at 4° C. […] The membrane was washed 3×10 min with 5% BSA, PBS, and 0.05% Tween 20 and incubated with mAb 384 (1:2000 dilution) for 1 h at room temperature. The membrane was next washed […] with PBS and 0.05% Tween 20 and incubated with horseradish peroxidase-conjugated sheep antimouse IgG (1:2000 dilution) for 1 h at room temperature. Detection and quantitation were performed as described above.

A further assay has as its target T1, wild-type Aβ42 peptide (UniProt P05067 672-713).
T1 construct: domain: Aβ42; Free in co-immunoprecipitation; also called Aβ42WT
The assay is described as follows: SPR, Aβ peptide immobilised, MBP as analyte.

T1 sequence (P05067 672-713 limits assumed): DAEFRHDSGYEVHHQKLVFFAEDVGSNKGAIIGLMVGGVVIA

As to RGRKQCKTHPHFVIPYRCLV [APP 100-119], in assay [1], the binding result was “no binding (tested: 1 g/ml MBP (as printed in paragraph 99))”.

In the case of PEERHLSKMQQNGYENPTYK (also called AβPP-(744-763)) [APP 744-763], the binding result in assay [1] is listed as “no binding (tested: 1 g/ml MBP (as printed in paragraph 99))”.

The Kd is the constant that tells how readily two partners part at equilibrium. A higher Kd goes with weaker binding. In turn, B1 came in with a Kd in the assay with wild-type Aβ42 peptide of 43 nM.
